Experimental findings from paper PMC2713827, “Characterization of a Lamellocyte Transcriptional Enhancer Located within the misshapen Gene of Drosophila melanogaster” are described below.

This data set deals with T1, dFos DNA-binding domain;dJun DNA-binding domain (Drosophila melanogaster;Drosophila …, UniProt P21525;P18289 418-481;212-275, |).
T1 sequence 1: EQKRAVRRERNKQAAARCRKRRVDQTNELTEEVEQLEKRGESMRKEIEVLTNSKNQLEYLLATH
T1 sequence 2: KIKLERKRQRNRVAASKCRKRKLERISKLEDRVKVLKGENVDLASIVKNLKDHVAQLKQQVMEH
Nature of the data set: EMSA; 10 mM Tris-HCl pH 8.0, 10 mM DTT, 2.5 mM MgCl2, 10% glycerol, poly(dI-dC), BSA, 100 ng dJun and dFos, 1,000 cpm 32P probe; temperature not stated. To be noted: protein: recombinant;recombinant; tags: 6xHis;6xHis; copies: 1;1; label: 32P. For orientation: Mobility shift assays separate free from complexed probe on a gel.

B1: hMTII wt AP-1 probe (dsDNA)
DNA 1: GAGCCGCAAGTGACTCAGCGCGGGGCGTGTGCAG
DNA 2: CTGCACACGCCCCGCGCTGAGTCACTTGCGGCTC
With B1, the binding result was “binds”.
